From article PMC6447653

Target: T1, AtWRI1 (Arabidopsis thaliana) (UniProt Q6X5Y6)
T1 sequence: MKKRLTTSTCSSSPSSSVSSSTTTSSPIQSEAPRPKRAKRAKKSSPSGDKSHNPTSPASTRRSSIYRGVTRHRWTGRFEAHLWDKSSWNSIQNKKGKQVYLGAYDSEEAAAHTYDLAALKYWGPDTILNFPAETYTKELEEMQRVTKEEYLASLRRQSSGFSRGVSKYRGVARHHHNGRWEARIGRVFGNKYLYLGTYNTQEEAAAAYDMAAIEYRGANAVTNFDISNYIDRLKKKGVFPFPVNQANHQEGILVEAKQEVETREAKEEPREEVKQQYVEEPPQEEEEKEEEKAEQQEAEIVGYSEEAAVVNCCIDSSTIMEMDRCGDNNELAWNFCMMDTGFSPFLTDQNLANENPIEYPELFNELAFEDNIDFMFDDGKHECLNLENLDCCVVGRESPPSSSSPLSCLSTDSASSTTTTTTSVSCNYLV
Experiment: EMSA
Settings: fEMSA: 150 mM KCl, 0.1 mM DTT, 10 mM Tris pH 7.4, 150 ng poly(dI-dC), 50 ng Cy5 probe, 10 ul, 30 min, room temperature

Q: “TAAAAGAGTTGGGTTTCTTCGTAAGCATCGAAATCAGATTTCTTTACCAAAGAAAAAATAAAGAAAAGAAAAATATAGCAAGTACACTGCATTTCAACACTCTCATATCTCTCCTTCCTACTTCCTCGGTTTCATCGTCCACTGTCTCAA (double strand) [BCCP2up (-2/-151)]” was tested. Which binding did it give?
A: binds
